Patent publication US20220289837A1, “Cystic Fibrosis Transmembrane Conductance Regulator Stabilizing Agents” (VIB VZW, priority 2019, published 2022)

B1: T2a: NBD1-specific CFTR-stabilizing nanobody, SEQ ID NO:3, binds epitope 1 (protein)
VHH: QVQLQESGGGLVQAGGSLRLSCAASGSIFRIDAMGWYRQAPGKQRELVAHSTSGGSTDYADSVKGRFTISRDNAKNTVYLQMNSLKPEDTAVYYCNADVRTRWYASNNYWGQGTQVTVSS
modifications: T2a Nanobody amino acid sequence
B2: D12: NBD1-specific CFTR-stabilizing nanobody, SEQ ID NO:2, binds epitope 1 (protein)
VHH: QVQLQESGGGLVQAGSSLRLACAATGSIRSINNMGWYRQAPGKQRGMVAIITRVGNTDYADSVKGRFTISRDNAKNTVYLQMNSLKPEDTATYYCHAEITEQSRPFYLTDDYWGQGTQVTVSS
modifications: D12 Nanobody amino acid sequence
B3: T27: NBD1-specific CFTR-stabilizing nanobody, SEQ ID NO:4, binds epitope 1 (protein)
VHH: QVQLQESGGGLEQPGGSLRLSCATSGVIFGINAMGWYRQAPGKQRELVATFTSGGSTNYADFVEGRFTISRDNAKNTVYLQMNGLRPEDTAVYYCHATVVVSRYGLTYDYWGQGTQVTVSS
modifications: T27 Nanobody amino acid sequence
B4: T8: nanobody, SEQ ID NO:7, binds epitope 2 including F508, stabilizes WT CFTR but not F508del (protein)
VHH: QVQLQESGGGLVQPGGSLRLSCAASGSTSSINAMGWYRQAPGKQREPVAISSSGGDTRYAEPVKGRFTISRDNAQNKVYLQMNSLKPEDTAVYYCWLNWGRTSVNSWGQGTQVTVSS
modifications: T8 Nanobody amino acid sequence
B5: G3a: non-stabilizing nanobody, SEQ ID NO:50, recognizes the structurally diverse region of NBD1 (protein)
VHH: QVQLQESGGGLVQAGGSLRLSCTASGRAFSWYVMGWFRQAPGKEREFVATVSGNGSRRDYADSVKGRFTISRDNAKNTVYLQMNSLKPEDTAVYYCAASSTYYYTDPEKYDYWGQGTQVTVSS
modifications: G3a Nanobody

The molecules below were run against T1, F508del-2PT-NBD1 (Homo sapiens, UniProt P13569, A534P/DEL508-508/I539T/S492P/V470M) (assay: NBD1 ELISA dose-response, nanobody binding to immobilized F508del-2PT-NBD1). Conditions: F508del-2PT-NBD1 versus 2PT-NBD1.
T1 construct: His6-SUMO (N, cleaved yes); made in house; host or cells: Escherichia coli BL21(DE3) pLysS
T1 sequence (P13569 with tags, fused parts or gaps V470M/S492P/DEL508-508/A534P/I539T limits assumed): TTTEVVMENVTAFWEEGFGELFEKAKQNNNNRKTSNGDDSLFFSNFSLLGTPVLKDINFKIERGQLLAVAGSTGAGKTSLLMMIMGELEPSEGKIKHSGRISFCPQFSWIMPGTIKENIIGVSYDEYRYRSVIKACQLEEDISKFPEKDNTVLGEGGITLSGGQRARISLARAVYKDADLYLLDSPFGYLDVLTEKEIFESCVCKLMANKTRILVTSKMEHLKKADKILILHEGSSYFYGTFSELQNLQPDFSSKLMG
Protocol: (§1) For dose-response assays, Nunc MaxiSorp 96-well plates (ThermoScientific), were coated with 5 μg/ml NeutrAvidin Biotin-Binding protein (ThermoScientific) overnight at 4° C. and blocked 2 h at room temperature (RT) with 2% milk in phosphate-buffered saline (PBS). Each new reagent addition was preceded by three washes with 200 μl of NBD1 buffer (20 mM HEPES pH 7.5, 150 mM NaCl, and 10% (w/v) glycerol, 10% (w/v) ethylene glycol, 2 mM ATP, 3 mM MgCl2). Then, biotinylated purified NBD1 proteins at 5 μg/ml were immobilized 30 min at RT followed by 1 h RT incubation with 100 μl various concentrations (0-20 μg/ml) of purified nanobodies. Signal detection was followed using His-tag specific antibody (Invitrogen, catalogue number: MA1-135, 1:3000 dilution) to detect the nanobodies and secondary antibody anti-mouse coupled to horse radish peroxidase (HRP) (Millipore, catalogue number: AP308P, 1:5000 dilution). 50 μl of 1-Step UltraTMB-ELISA (ThermoScientific) was used as a substrate for the peroxidase and intensity of the reaction was proportional to absorbance measured at 450 nm with SynergyMx (BioTek) after addition of 50 μl H2SO4 at 1M.
Affinity constants (KD) and thermodynamic parameters from ITC experiments were determined using one-site binding model with MicroCal Origin 7.0 software (Origin Lab Corp.). Dose response ELISA curves of each Nb binding to either isolated NBD1 or purified FL-CFTR were fitted using the sigmoidal dose-response equation from GraphPad Prism 3. DSC data were analyzed with the MicroCal Origin 7.0 software (Origin Lab Corp.), from which the unfolding temperature (Tm) was obtained.
With B1 the “effect of F508del mutation on binding” value was “not affected”. In the case of B2, the “effect of F508del mutation on binding” value is reported as “not affected”. With B3 the “effect of F508del mutation on binding” value was “not affected”. In the case of B4, the “effect of F508del mutation on binding” value is reported as “drastically affected”.

Same assay, conditions: immobilized F508del-2PT-NBD1
B5 was tested, and the “EC50 of binding to F508del-2PT-NBD1” value was “weaker binding potency”.

The molecules below were run against wt-CFTR (Homo sapiens, UniProt P13569) (assay: Thermal inactivation of CFTR (residual ATPase activity after heat challenge)). Conditions: residual ATPase activity after 30 min heat challenge.
wt-CFTR, sequence (P13569 whole entry): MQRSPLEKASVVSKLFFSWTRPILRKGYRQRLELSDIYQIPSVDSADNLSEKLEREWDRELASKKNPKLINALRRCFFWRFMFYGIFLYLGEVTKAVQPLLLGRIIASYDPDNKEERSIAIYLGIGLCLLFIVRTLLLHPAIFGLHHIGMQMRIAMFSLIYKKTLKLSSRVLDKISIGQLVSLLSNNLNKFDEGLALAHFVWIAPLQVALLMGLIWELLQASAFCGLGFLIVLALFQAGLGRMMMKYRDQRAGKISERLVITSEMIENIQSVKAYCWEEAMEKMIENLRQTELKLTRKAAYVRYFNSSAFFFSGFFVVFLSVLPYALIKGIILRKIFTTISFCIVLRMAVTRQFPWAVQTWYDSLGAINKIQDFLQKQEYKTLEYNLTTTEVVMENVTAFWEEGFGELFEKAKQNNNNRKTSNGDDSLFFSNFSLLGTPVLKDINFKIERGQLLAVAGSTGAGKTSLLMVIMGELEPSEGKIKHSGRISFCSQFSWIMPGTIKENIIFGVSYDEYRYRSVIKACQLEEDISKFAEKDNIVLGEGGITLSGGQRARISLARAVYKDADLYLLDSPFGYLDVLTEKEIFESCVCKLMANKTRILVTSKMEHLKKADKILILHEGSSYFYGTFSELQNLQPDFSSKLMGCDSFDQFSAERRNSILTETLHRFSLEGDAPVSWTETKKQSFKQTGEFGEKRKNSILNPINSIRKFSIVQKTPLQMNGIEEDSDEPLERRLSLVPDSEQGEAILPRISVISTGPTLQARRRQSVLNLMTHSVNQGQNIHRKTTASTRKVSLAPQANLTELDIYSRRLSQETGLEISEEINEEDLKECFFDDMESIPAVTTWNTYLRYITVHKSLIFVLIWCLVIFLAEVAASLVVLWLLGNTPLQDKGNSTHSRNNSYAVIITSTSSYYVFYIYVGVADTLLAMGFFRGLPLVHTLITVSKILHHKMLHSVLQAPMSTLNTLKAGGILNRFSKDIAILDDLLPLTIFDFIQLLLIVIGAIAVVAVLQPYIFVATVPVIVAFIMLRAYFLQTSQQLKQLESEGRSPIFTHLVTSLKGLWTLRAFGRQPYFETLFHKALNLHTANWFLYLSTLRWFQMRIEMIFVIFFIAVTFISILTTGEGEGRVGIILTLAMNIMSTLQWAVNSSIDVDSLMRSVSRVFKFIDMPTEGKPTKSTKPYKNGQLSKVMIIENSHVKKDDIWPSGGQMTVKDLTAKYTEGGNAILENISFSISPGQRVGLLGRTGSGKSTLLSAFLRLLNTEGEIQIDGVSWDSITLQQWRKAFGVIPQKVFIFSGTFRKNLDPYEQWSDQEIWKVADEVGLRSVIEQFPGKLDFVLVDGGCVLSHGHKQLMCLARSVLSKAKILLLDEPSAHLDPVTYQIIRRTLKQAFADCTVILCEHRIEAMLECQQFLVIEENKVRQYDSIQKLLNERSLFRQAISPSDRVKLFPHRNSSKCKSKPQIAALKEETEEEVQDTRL
Type: biochemical
Set-up: His10-SUMO* (N); FLAG; EGFP (C); made in house; host or cells: HEK 293 cell line D165
Protocol: To determine effect of nanobodies on functional stability, aliquots of purified wt-CFTR (25 nM) were preincubated 1 h on ice with 1 μM nanobody (or 15 μM, in the case of G3a). Substrate α-[32P]-ATP (2 μl) was then added for measurement of ATPase activity as previously described^[48]. Then, nanobody protection against thermal denaturation was determined after a 30 min thermal challenge of the protein complexes followed by an assay of residual ATPase.
With B5 the “shift of CFTR thermal inactivation” value was 3.1 °C. B2 was tested, and the “shift of CFTR thermal inactivation” value was 7 °C.

These molecules were tested against T2, 2PT-NBD1 (Homo sapiens, UniProt P13569, A534P/I539T/S492P/V470M) (assay: Thermal shift assay (DSF) of 2PT-NBD1). Conditions: versus isolated 2PT-NBD1.
T2 construct: 2PT-NBD1 mutants (residues 387-646 containing the mutations S492P, A534P, I539T); His6-SUMO (N, cleaved yes); made in house; host or cells: Escherichia coli BL21(DE3) pLysS
T2 sequence (P13569 388-646 V470M/S492P/A534P/I539T): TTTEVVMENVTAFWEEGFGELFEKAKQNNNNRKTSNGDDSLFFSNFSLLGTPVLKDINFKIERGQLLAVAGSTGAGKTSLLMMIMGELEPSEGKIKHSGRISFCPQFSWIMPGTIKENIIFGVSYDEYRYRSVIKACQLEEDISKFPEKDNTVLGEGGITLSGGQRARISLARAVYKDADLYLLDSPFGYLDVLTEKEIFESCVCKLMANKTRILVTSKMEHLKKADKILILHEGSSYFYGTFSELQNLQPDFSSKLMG
Type: binding
Protocol: Solutions of either 2PT-NBD1 or F508del-2PT-NBD1 (10 μM final concentration), nanobodies (30 μM final concentration) and 2.5× or 5× concentrated SYPRO Orange Protein Stain (Molecular Probes) diluted in 20 mM HEPES pH 7.5, 150 mM NaCl, 3 mM MgCl2, 2 mM ATP and 10% (w/v) glycerol, 10% (w/v) ethylene glycol, were added to the wells of a 96-well PCR plates type BR white (VWR) in a final volume of 25 μl. Plates were sealed with EasySeal sheets (Molecular dimensions) and spun 2 min at 900× g. SYPRO orange fluorescence was monitored in CFX96 Touch Real-Time PCR Detection System (Bio-Rad) using FRET scan mode from 10 to 80° C. in increments of either 1° C. or 0.2° C.
With B1 the “increase of Tm of 2PT-NBD1” value was 11.2 °C. With B5 the “increase of Tm of 2PT-NBD1” value was “did not induce a significant shift”. In the case of B2, the “increase of Tm of 2PT-NBD1” value is reported as 13.8 °C. In the case of B3, the “increase of Tm of 2PT-NBD1” value is reported as 11.9 °C. With B4 the “increase of Tm of 2PT-NBD1” value was 9.3 °C.

These molecules were tested on parental BHK-21 cells (assay: Flow cytometry on parental BHK-21 cells). Conditions: compared to negative control nanobody.
Type: cell-based, hamster
Protocol: Parental BHK-21 cells (ATCC; CCL-10) and cells stably overexpressing human wt-CFTR^[43,44,47] or 2PT-F508del-CFTR, as described above, were permeabilized with 0.01% n-Dodecyl-β-D-Maltopyranoside β-DDM—Inalco) at least for 2 h on ice. In the meantime, cells were incubated with 50 μg/ml nanobodies and DRAQ7 (0.3 μM—Biostatus) to monitor the permeabilization state. Nanobody binding was detected by using His-tag specific antibody (Invitrogen, catalogue number MA1-135, 1 μg/ml) or Myc-tag specific antibody (Invitrogen, catalogue number 13-2500, 2 μg/ml) and then anti-mouse-Alexa Fluor 488 (Invitrogen, catalogue number A11001, 1.3 μg/ml) at least for 30 min on ice. Cells were washed one time between each step by centrifugation (200×g for 5 min at 4° C.). All incubations (100 μl) and washes (1.5 ml) were performed in PBS with 6% fetal bovine serum (FBS) and 0.01%13-DDM on ice. Cells fluorescence was measured with Gallios Flow Cytometer (Beckman Coulter). Data were analyzed with Kaluza software.
For B1, the “labelling of parental BHK-21 cells” value was “no difference in labelling”. With B5 the “labelling of parental BHK-21 cells” value was “no difference in labelling”. For B2, the “labelling of parental BHK-21 cells” value was “no difference in labelling”. With B3 the “labelling of parental BHK-21 cells” value was “no difference in labelling”. For B4, the “labelling of parental BHK-21 cells” value was “no difference in labelling”.

What follows are molecules tested against T2, 2PT-NBD1 (assay: NBD1 ELISA dose-response, nanobody binding to immobilized 2PT-NBD1). Conditions: immobilized biotinylated 2PT-NBD1.
Protocol: as §1, with “Signal detection was followed using His-tag specific antibody (Invitrogen, catalogue number: MA1-135, 1:3000 dilution) to detect the nanobodies and secondary antibody anti-mouse coupled to horse radish peroxidase (HRP) (Millipore, catalogue number: AP308P, 1:5000 dilution).” left out
Affinity constants (KD) and thermodynamic parameters from ITC experiments were determined using one-site binding model with MicroCal Origin 7.0 software (Origin Lab Corp.). […] DSC data were analyzed with the MicroCal Origin 7.0 software (Origin Lab Corp.), from which the unfolding temperature (Tm) was obtained.
For B5, the “EC50 of binding to 2PT-NBD1” value was “weaker binding potency”.
